Literature values in PMC7563123.

Tests used:
[1] = molecular target: Aβ1–40 Aβ1-40 (Homo sapiens) (UniProt P05067); assay: ligand binding assay
[2] = molecular target: Aβ1–42 Aβ1-42 (Homo sapiens) (UniProt P05067); assay: ligand binding assay
Aβ1–42 Aβ1-42 (Homo sapiens), sequence (P05067 1-42): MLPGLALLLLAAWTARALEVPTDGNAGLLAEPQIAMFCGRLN

17β-HSD10, sequence (Q99714 2-261): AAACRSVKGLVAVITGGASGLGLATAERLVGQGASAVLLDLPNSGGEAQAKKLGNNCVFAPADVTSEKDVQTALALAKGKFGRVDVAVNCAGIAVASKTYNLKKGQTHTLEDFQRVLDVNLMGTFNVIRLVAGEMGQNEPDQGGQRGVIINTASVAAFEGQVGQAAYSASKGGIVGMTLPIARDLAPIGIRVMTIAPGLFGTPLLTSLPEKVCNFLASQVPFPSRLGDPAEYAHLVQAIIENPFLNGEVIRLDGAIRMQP
Aβ1–40 Aβ1-40 (Homo sapiens), sequence (P05067 1-40): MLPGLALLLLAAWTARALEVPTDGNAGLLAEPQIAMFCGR

Kd [1]: 38.4 nM
Kd [2]: 55.8 nM
Substance: 17β-HSD10 (from UniProt Q99714)
